In the experiment the target is T1, recombinant human CCN6 (rhCCN6) protein, full length (human, UniProt O95389 24-354).
T1 sequence (looked up): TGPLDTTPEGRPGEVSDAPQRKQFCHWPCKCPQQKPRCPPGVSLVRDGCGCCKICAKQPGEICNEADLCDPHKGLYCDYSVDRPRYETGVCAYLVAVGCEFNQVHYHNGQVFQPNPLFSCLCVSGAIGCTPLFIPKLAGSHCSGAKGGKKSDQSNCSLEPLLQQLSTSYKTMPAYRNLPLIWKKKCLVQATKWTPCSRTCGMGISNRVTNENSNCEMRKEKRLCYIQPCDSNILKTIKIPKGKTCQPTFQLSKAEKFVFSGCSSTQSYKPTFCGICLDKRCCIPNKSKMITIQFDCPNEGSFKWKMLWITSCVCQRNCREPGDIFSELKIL
Kind of experiment: SPR. Background: SPR reads the build-up and loss of mass on a sensor chip optically.

Experimental findings from publication PMC3506182 (Cancer research, 2012) are described below.

B1: disulfide linked homodimer of biotin labeled rhBMP4 (Bio-BMP4) (ligand, human, UniProt P12644 293-408, looked up)
chain: SPKHHSQRARKKNKNCRRHSLYVDFSDVGWNDWIVAPPGYQAFYCHGDCPFPLADHLNSTNHAIVQTLVNSVNSSIPKACCVPTELSAISMLYLDEYDKVVLKNYQEMVVEGCGCR
modifications: biotin label (site not stated)
Usually Kd stands for the equilibrium constant for the complex coming apart. As to B1, the Kd is 200 nM.
